# Test results taken from patent publication US6048719.
# System: DraIII restriction endonuclease (R.DraIII) (Deinococcus radiophilus)
# Assay: cleavage_in_vitro
# Details: Source-15Q fraction 11; DraIII activity assayed on lambda DNA
substance,measurement,value
lambda DNA,activity,121000 u/ml
